Experimental data as given in the nanobody polyreactivity screen of Harvey et al. (2022).

Assay: yeast display, Sf9 membrane polyspecificity reagent, FACS + sequencing; frameworks hold sequencing errors
Procedure, shortened: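 A nanobody's polyreactivity label depends on the gate it was sorted from. Yeast display cells were stained with 10% biotinylated, detergent-solubilized Sf9 membrane reagent for 1 hour at 4 °C, enriched on streptavidin microbeads and sorted by FACS. The low and high (top ~1%) gates were set on anti-HA fluorescence for expression and streptavidin fluorescence for reagent binding.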

| Sequence | polyreactivity (PSR sort gate) |
| --- | --- |
| QVQLVESGGGLVQAGGSLRLSCAASGSTILKYAMGWYRQAPGKERELVAAITSDGTSYADSVKGRFTISRDNAKNTVYLQMNSLKPEDTAVYYCAIDYRHPTFDYWGQGTQVTVSS | low polyreactivity |
| QVQLVESGGGLVQAGGSLRLSCAASGSTILYYAMGWYRPAPGKERELVAAITWSGGPTYYADSVKGRFTISRDNAKMSGYLLMTSLKPEDTAVYYCNKADPWLRSTALNPGLYDYWGQGTQVTVSS | high polyreactivity |
| QVQLVESGGGLVQAGGSLRLSCAASGSTINHYAMGWYRQAPGKERELVAAISWSGGSTRYADSVKGRFTISRDNAKNTVYLQMNSLKPEDTAVYYCAARGYGKYYYWGQGTQVTVSS | high polyreactivity |
| QVQLVESGGGLVQAGGSLRLSCAASGSTINQYPLGWYRQATGKERELVAAITRRGGSTYYADSVKGRFTISRDNAKNTVYLQMNSLKPEDTAVYYCAAAYPYTTVSYDYWGQGTQVTVSS | high polyreactivity |
| QVQLVESGGGLVQAGGSLRLSCAASGSTINSYTKGWYSQAPRKERELVAAISGSSGRTYDADSVKGRFTISRDNAKNTVYLQMNSLKPEDTAVYYGAAVDLYGGSDYWGQGTQVTVSS | high polyreactivity |
| QVQLVESGGGLVQAGGSLRLSCAASGSTIPLYAMGWYRQAPGKERELVAAISRRGGRTYYADSVKGRFTISRDYAKNTVYLQMNSLKQEDTAVYYCATAQGSRVDYWGQGTQVTVSS | high polyreactivity |
| QVQLVESGGGLVQAGGSLRLSCAASGSTIQYYTMGWYRQAPGKERELVASITSGDSTNYADSVKGRFTISRDNAKNTVYLQMNSLKPEDTAVYYCARDRVSTQLQSSPAVSELYYWGQGTQVNVSS | low polyreactivity |
| QVQLVESGGGLVQAGGSLRLSCAASGSTIRNYAMGWYRQAPGKERELVAAISSGGRTYYADSVKGRFTISRDNAKNTVYLQMNSLKPEDTAVYYCYTPYTVRGRYSYDYWGQGTQVTVSS | high polyreactivity |
| QVQLVESGGGLVQAGGSLRLSCAASGSTIRQNAMGWSSQAPGKEMELVAAITYTGGSTYYADSVKGRYTISRDNAKNTVYLEMNSLKPEDTSVYYCAATYLSYYHGWVNYWGEGTQVTVSS | high polyreactivity |
| QVQLVESGGGLVQAGGSLRLSCAASGSTIRRYAMGWSRQAPGKERELVAAITRSGGSTYYADSVKGRFTISRDNAKNTVYLQMNSLKPEDTEVYYCAADTGTGLDWGQGTQVTVSS | high polyreactivity |
| QVQLVESGGGLVQAGGSLRLSCAASGSTIRYYVKGWYRQAPGKERELVAAISYNGGSTYYADSVKGRFTISRDTAKNTVYLHMNSVTPEDTAVYYCAADAPYRSSGKDYWGQGTQVTVSS | high polyreactivity |
| QVQLVESGGGLVQAGGSLRLSCAASGSTISVNAMGWYRQAPGKERELVAAISDRGGSTYYADSVKGRFTISRDNAKNTVYLQMNSLKPEDTAVYYCAALFLRVTYFRLGLYSYEYWGQGTQVTVSS | low polyreactivity |
| QVQLVESGGGLVQAGGSLRLSCAASGSTITYNAMGWYRQAPGKERELVAAITVSDGSTYYADSVKGRFTISRDNAKNTVYLQMNSLKPEDTAVYYCNKDRGHPFKYDYWGQGTQVTVSS | low polyreactivity |
| QVQLVESGGGLVQAGGSLRLSCAASGSTIVGYAMGWYRQAPGKERELVAAISRTGASTYYADSVKGRFTISRDNAKNTVYLQMISLKPEDTAVYYCAAGREYWGVTREYWGQGTQVTVSS | high polyreactivity |
| QVQLVESGGGLVQAGGSLRLSCAASGSTIVQNAMGWYRQAPAKERELVAAISRTGGSTYYADSVKGRFTISRDNAKNTVYLQMNSLKPEDTAVYYCAKRPPHYSWPKLIEFGSWGQGNQVTVSS | high polyreactivity |
| QVQLVESGGGLVQAGGSLRLSCAASGSTIWPYTMGWYRQAPGKERELVAAITLRGGTTYYADSVKGRFTISRDNAKNTVYLQMNSLKPEDTVVYYCNATSGNPASTAWMNYWGQGTQVTVSS | low polyreactivity |
| QVQLVESGGGLVQAGGSLRLSCAASGSTIWRNTMGWYRQAPGKERELVADIRNVGSTYYADSVKGLFTISRDNAKNTVYLQMNSLKPEDTAVYYCYARWRFLYDYWGQGTQVTVSS | high polyreactivity |
| QVQLVESGGGLVQAGGSLRLSCAASGSTIYDYTMGWYRQAPGKERELVAAISSDGSTYYADSVKGRFTISRDNAKITVYLKMNSLKPEDTAVYYCNADAGFLSLRGYDYWGQGTQVTVSS | low polyreactivity |
| QVQLVESGGGLVQAGGSLRLSCAASGSTIYHYTMECYRQAPGKERELVAAITYSGGRTYYADSVKGRFTISRDNAKNTVYLQMNSLKPEDTAVYYCAATYSTPGAGYYHYWGQGTQVTVSS | high polyreactivity |
| QVQLVESGGGLVQAGGSLRLSCAASGSTIYRYAMGWYRQAPGKERELVATISRTGARTNYADSVKGRFTISRDNAKNTVYLQMNSLKPEDTAVYYCAASAPYIYYWGQGTQVTVSS | high polyreactivity |
| QVQLVESGGGLVQAGGSLRLSCAASGSTIYYNAMGWYRQAPGKERELVATITSAGRTNYADSVKGRFTISRDNAKNTVSLLMNSLKPEDTAVYYCNARYRLSRYNYWGQGTQVNVSS | low polyreactivity |

| Sequence | polyreactivity (PSR sort gate) |
| --- | --- |
| QVQLVESGGGLVQAGGSLRLSCAASGSTLAGYAMGWYRPAPGKERELVAAIDWTGGSTTYADSVKGRFTISRDNAKNTVYLQMNSLKPEDTAVYYCNVDLGVNGDYWGQGTQVTVSS | low polyreactivity |
| QVQLVESGGGLVQAGGSLRLSCAASGSTLAIYAMGWYRQAPGKEREWVAAISRSGGTTYYADSVKGRFTISRDNAKNTVYLQMNSLKPEDTAVYYCYPYFWYPDGYTYDYWGQGTQVTVSS | high polyreactivity |
| QVQLVESGGGLVQAGGSLRLSCAASGSTLAPYVMGWYRQAPGKERELVSVISTRTGRTSYADSVKGRFTLSRDNAKNTVYLQMNSLKPEDTAVYYCNAQWVSWWSLYDYWGQGTQVTVSS | high polyreactivity |
| QVQLVESGGGLVQAGGSLRLSCAASGSTLATYTMGWYRQAPGKERELVAAISFGGSTYYAYSVKGRFTISRDNAKNTVYLQMNSLKPEDTAVYYCAVYGDSYWGAYYYSDGYWGQGTQVTVSS | low polyreactivity |
| QVQLVESGGGLVQAGGSLRLSCAASGSTLDSYTMGWYRQAPGKERELVATISTSGGSTYYADAVKGRFTISRDNAKNTVSIQMNSLKPEDTAVYYCKADAPFGPNRYNSWGQGTQVTVSS | low polyreactivity |
| QVQLVESGGGLVQAGGSLRLSCAASGSTLDTYAMGWYRQAPGKERELVAGITWSGGSTYYADSVKGRFTISRDNAKNTVYLQMNSLKPEDTAVYYCAAYSPYGPRYDYWGQGTQVTVSS | low polyreactivity |
| QVQLVESGGGLVQAGGSLRLSCAASGSTLEFNARGWYRQAPGKERELVAVINRSDGSTYYAASVKGRFTISRDNAKNTVYLQMNSLKPEDTAVYYCAADRHQVSVISTEDYWGQGTQVTVSS | low polyreactivity |
| QVQLVESGGGLVQAGGSLRLSCAASGSTLEYYAMGWYRQAPGKERELVAAITYSGGDTYYADSVKGRFTISRDNAKNTVYLQMNSLKPEDTAVYYCAAEALYYPYETYDYWGQGTQVTVSS | high polyreactivity |
| QVQLVESGGGLVQAGGSLRLSCAASGSTLFAYAMGWYRQAPGKERELVAAITSGASTNYADSVKGRFTISRDNAKNTVYLQMNSLKPEDTAVYYCAKDVSGTNPDYDYWGQGTQVTVSS | low polyreactivity |
| QVQLVESGGGLVQAGGSLRLSCAASGSTLFFYTMGWYRQAPGKERELVAAITRGGSTYYADSVKGRFTISRDNAKNTVYLQLNSLKPEDTAVYYCAAPYVRPKKVYNYDYWGQGTQVTVSS | high polyreactivity |
| QVQLVESGGGLVQAGGSLRLSCAASGSTLGANAMGWYRQAPGKERELVAAISISDGDTYYADSVKGRFTISRDYAKNTVYLQMNSLKPEDTAVYYCAADYWFQYRWYDYWGQGTQVTVSS | high polyreactivity |
| QVQLVESGGGLVQAGGSLRLSCAASGSTLGAYAMGWYRQAPGKERELVAAISRSGGNTYYADSVKGRFTISRDNAKNTVYLQMNSLKPEDTAVYYCAAVRLYRYDYWGQGTQVTVSS | low polyreactivity |
| QVQLVESGGGLVQAGGSLRLSCAASGSTLGKYAMGWYRQAPGKERELVARITLNGGRTYYADSVKGRFTISRDNAKNTVYLQMNSLKPEDTAVYYCAKSLPHSTSRDYWGQGTQVTVSS | low polyreactivity |
| QVQLVESGGGLVQAGGSLRLSCAASGSTLGRNAMGWYRQAPGKERELVASITRSGGSTYYADSVKGRFTISRDNAKNTVYLQMNSLKPEDTAVYYCAAEVQGQVGEFDYWGQGTQVTVSS | low polyreactivity |
| QVQLVESGGGLVQAGGSLRLSCAASGSTLGRNAMVWYRQAPGKERELVAAITTSGGSTYYADSVKGRFTISRDNAKNTVYLQMNSLKPEDTAVYYCAARTGYRNYGYWGQGSQVTVSS | high polyreactivity |
| QVQLVESGGGLVQAGGSLRLSCAASGSTLGSNAMGWYRQAPGKERELVAAITWSGGTTYYADSVKGRFTISRDNAKNTVYLQMISLKPEDTAVYYCATGQSVIYRYEYWGQGTKVTVSS | low polyreactivity |
| QVQLVESGGGLVQAGGSLRLSCAASGSTLGYNAMGWYRQATGKERELVAGISRNGGSTFYADSVKGRFTISRDYAKYTLYLQMNSLKPEDTAVYYCARYYTHSGGFRVRIYYYWGQATQVTVSS | low polyreactivity |
| QVQLVESGGGLVQAGGSLRLSCAASGSTLGYNVMAWYRQAPGKERELVAAISGEGSTNYADSVKGRFTISRDNAKNTVYLQMNSLKPEDTAVYYCAADSRDDYEYWRQGTQVTVSS | low polyreactivity |
| QVQLVESGGGLVQAGGSLRLSCAASGSTLGYNVMGCYIQAPGKERELVAAISGDGSTNYADSVKGRFTISRDNAKNTVYLQMNSLKPEDTAVYYCAARPGWFAGYEYWGQGTQVTVSS | low polyreactivity |
| QVQLVESGGGLVQAGGSLRLSCAASGSTLGYYAMGWYRQAPGKERELVAAIRYSDGNTYYADSVKGRFTISRDNAKNTVYLQMNSLKPEDTAVYYCAADGGYYGREYWGQGTQVTVSS | high polyreactivity |
